We go through one substance from patent US20220204624A1.

Assay in all cases: Octet (BLI), global fit, 1:1 binding model
(In general: Biolayer interferometry detects binding as a change in optical thickness at a sensor tip.)

Assay [1] has as its target cynomolgus LAG-3 (cynomolgus).
Assay [2] concerns the target cynomolgus CTLA-4 (cynomolgus) (UniProt G7PL88).
The target in assay [3] is human CTLA-4 (human) (UniProt P16410).
Assay [4] concerns the target human LAG-3 (human) (UniProt P18627).

cynomolgus CTLA-4 (cynomolgus), sequence (G7PL88 entry or part of it limits assumed, form in doubt): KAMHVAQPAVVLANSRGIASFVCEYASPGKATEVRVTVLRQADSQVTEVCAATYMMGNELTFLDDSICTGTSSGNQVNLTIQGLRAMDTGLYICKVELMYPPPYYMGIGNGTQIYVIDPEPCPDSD
human LAG-3 (human), sequence (P18627 23-450 limits assumed): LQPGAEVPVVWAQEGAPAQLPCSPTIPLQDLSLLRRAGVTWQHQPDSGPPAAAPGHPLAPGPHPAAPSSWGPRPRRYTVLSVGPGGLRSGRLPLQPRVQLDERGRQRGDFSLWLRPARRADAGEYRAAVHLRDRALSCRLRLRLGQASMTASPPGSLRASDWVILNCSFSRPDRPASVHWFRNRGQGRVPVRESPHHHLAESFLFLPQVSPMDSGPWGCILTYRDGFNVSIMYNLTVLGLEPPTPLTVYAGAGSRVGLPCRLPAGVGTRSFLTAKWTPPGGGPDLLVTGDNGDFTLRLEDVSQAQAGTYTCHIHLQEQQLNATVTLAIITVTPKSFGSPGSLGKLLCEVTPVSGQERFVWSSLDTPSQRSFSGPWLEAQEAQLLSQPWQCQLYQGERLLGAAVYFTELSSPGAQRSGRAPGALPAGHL
human CTLA-4 (human), sequence (P16410 36-161 limits assumed): as the sequence (G7PL88 entry or part of it limits assumed, form in doubt) above, with N14S, M106L counted along it

As to XmAb22841 (bispecific antibody), the Kd (in general, the free concentration of one partner at which half of the binding sites on the other are occupied at equilibrium, for simple one-to-one binding) in assay [1] amounted to 1.3 nM; in assay [2], 17.6 nM; in assay [3], 4.6 nM; in assay [4], 1.4 nM.
